# Changes are numbered by the printed parent chain.
# T1: extracellular domain of human BCMA (human, UniProt Q02223 1-54)
# T1 construct: amine-linked to Octet AR2G tips; also called hsBCMA; BCMA (human)
# T1 sequence: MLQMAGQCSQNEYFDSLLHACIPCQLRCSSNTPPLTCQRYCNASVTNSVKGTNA
# B1: AB200-R1H32-R2Vk1 (Fab, V domains shown)
# VH: QVQLVQSGAEVKKPGSSVKVSCKASGGTFSNYWMHWVRQAPGQGLEWMGATYRSHSDTYYNQKFKSRVTITADKSTSTAYMELSSLRSEDTAVYYCARGAIYHGYDVIDNWGQGTLVTVSS
# VL: DIQMTQSPSSLSASVGDRVTITCRASQSISSYLNWYQQKPGKAPKLLIYAASSLQSGVPSRFSGSGSGTDFTLTISSLQPEDFATYYCQQFRKLPWSFGQGTKLEIKR
# B2: AB200-R1H32-R2Vk20 (Fab, V domains shown)
# VH: B1 VH
# VL: B1 VL with A51T, S53N, F91Y, K93R, L94I, S97T
# B3: AB200-R1H32-R2Vk25 (Fab, V domains shown)
# VH: B1 VH
# VL: B1 VL with A51T, S53N, L54I, F91Y, K93R, L94I, S97T
# B4: AB200-R1H32-R2Vk46 (Fab, V domains shown)
# VH: B1 VH
# VL: B1 VL with L33I, A51T, S53N, S56I, K93R, S97T
# B5: AB200-R1H32-R2Vk26 (Fab, V domains shown)
# VH: B1 VH
# VL: B1 VL with A51T, S53N, L54I, K93R, S97T
# B6: AB200-R1H32-R2Vk5 (Fab, V domains shown)
# VH: B1 VH
# VL: B1 VL with A51T, S53N, S56I
# B7: AB200-R1H32-R2Vk14 (Fab, V domains shown)
# VH: B1 VH
# VL: B1 VL with L33I, F91Y, K93R
# B8: AB200-R1H32-R2Vk45 (Fab, V domains shown)
# VH: B1 VH
# VL: B1 VL with L33I, A51T, S53N, S56I, F91Y, K93R, L94I, S97T
# B9: AB200-R1H32-R2Vk3 (Fab, V domains shown)
# VH: B1 VH
# VL: B1 VL with A51T, S53N
# B10: AB200-R1H32-R2Vk12 (Fab, V domains shown)
# VH: B1 VH
# VL: B1 VL with F91Y, L94I
# B11: AB200-R1H32-R2Vk31 (Fab, V domains shown)
# VH: B1 VH
# VL: B1 VL with A51T, S53N, S56I, K93R, S97T
# B12: AB200-R1H32-R2Vk28 (Fab, V domains shown)
# VH: B1 VH
# VL: B1 VL with A51T, S53N, L54I, L94I, S97T
# B13: AB200-R1H32-R2Vk4 (Fab, V domains shown)
# VH: B1 VH
# VL: B1 VL with A51T, S53N, L54I
# B14: AB200-R1H32-R2Vk29 (Fab, V domains shown)
# VH: B1 VH
# VL: B1 VL with A51T, S53N, S56I, F91Y, K93R
# B15: AB200-R1H32-R2Vk21 (Fab, V domains shown)
# VH: B1 VH
# VL: B1 VL with A51T, S53N, K93R, S97T
# B16: AB200-R1H32-R2Vk7 (Fab, V domains shown)
# VH: B1 VH
# VL: B1 VL with L33I, A51T, S53N, L54I
# B17: AB200-R1H32-R2Vk16 (Fab, V domains shown)
# VH: B1 VH
# VL: B1 VL with L33I, K93R, S97T
# B18: AB200-R1H32-R2Vk9 (Fab, V domains shown)
# VH: B1 VH
# VL: B1 VL with F91Y, K93R
# B19: AB200-R1H32-R2Vk15 (Fab, V domains shown)
# VH: B1 VH
# VL: B1 VL with L33I, F91Y, K93R, L94I, S97T
# B20: AB200-R1H32-R2Vk19 (Fab, V domains shown)
# VH: B1 VH
# VL: B1 VL with A51T, S53N, F91Y, K93R
# B21: AB200-R1H32-R2Vk22 (Fab, V domains shown)
# VH: B1 VH
# VL: B1 VL with A51T, S53N, F91Y, L94I
# B22: AB200-R1H32-R2Vk41 (Fab, V domains shown)
# VH: B1 VH
# VL: B1 VL with L33I, A51T, S53N, L54I, K93R, S97T
# B23: AB200-R1H32-R2Vk24 (Fab, V domains shown)
# VH: B1 VH
# VL: B1 VL with A51T, S53N, L54I, F91Y, K93R
# B24: AB200-R1H32-R2Vk32 (Fab, V domains shown)
# VH: B1 VH
# VL: B1 VL with A51T, S53N, S56I, F91Y, L94I
# B25: AB200-R1H32-R2Vk6 (Fab, V domains shown)
# VH: B1 VH
# VL: B1 VL with L33I, A51T, S53N
# B26: AB200-R1H32-R2Vk10 (Fab, V domains shown)
# VH: B1 VH
# VL: B1 VL with F91Y, K93R, L94I, S97T
# B27: AB200-R1H32-R2Vk30 (Fab, V domains shown)
# VH: B1 VH
# VL: B1 VL with A51T, S53N, S56I, F91Y, K93R, L94I, S97T
# B28: AB200-R1H32-R2Vk27 (Fab, V domains shown)
# VH: B1 VH
# VL: B1 VL with A51T, S53N, L54I, F91Y, L94I
# B29: AB200-R1H32-R2Vk36 (Fab, V domains shown)
# VH: B1 VH
# VL: B1 VL with L33I, A51T, S53N, K93R, S97T
# B30: AB200-R1H32-R2Vk35 (Fab, V domains shown)
# VH: B1 VH
# VL: B1 VL with L33I, A51T, S53N, F91Y, K93R, L94I, S97T
# B31: AB200-R1H32-R2Vk34 (Fab, V domains shown)
# VH: B1 VH
# VL: B1 VL with L33I, A51T, S53N, F91Y, K93R
# B32: AB200-R1H32-R2Vk8 (Fab, V domains shown)
# VH: B1 VH
# VL: B1 VL with L33I, A51T, S53N, S56I
# B33: AB200-R1H32-R2Vk47 (Fab, V domains shown)
# VH: B1 VH
# VL: B1 VL with L33I, A51T, S53N, S56I, F91Y, L94I
# B34: AB200-R1H32-R2Vk17 (Fab, V domains shown)
# VH: B1 VH
# VL: B1 VL with L33I, F91Y, L94I
# B35: AB200-R1H32-R2Vk23 (Fab, V domains shown)
# VH: B1 VH
# VL: B1 VL with A51T, S53N, L94I, S97T
# B36: AB200-R1H32-R2Vk2 (Fab, V domains shown)
# VH: B1 VH
# VL: B1 VL with L33I
# B37: AB200-R1H32-R2Vk39 (Fab, V domains shown)
# VH: B1 VH
# VL: B1 VL with L33I, A51T, S53N, L54I, F91Y, K93R
# B38: AB200-R1H32-R2Vk13 (Fab, V domains shown)
# VH: B1 VH
# VL: B1 VL with L94I, S97T
# B39: AB200-R1H32-R2Vk42 (Fab, V domains shown)
# VH: B1 VH
# VL: B1 VL with L33I, A51T, S53N, L54I, F91Y, L94I
# B40: AB200-R1H32-R2Vk33 (Fab, V domains shown)
# VH: B1 VH
# VL: B1 VL with A51T, S53N, S56I, L94I, S97T
# B41: AB200-R1H32-R2Vk18 (Fab, V domains shown)
# VH: B1 VH
# VL: B1 VL with L33I, L94I, S97T
# B42: AB200-R1H32-R2Vk11 (Fab, V domains shown)
# VH: B1 VH
# VL: B1 VL with K93R, S97T
# Target: T2, extracellular domain of rhesus monkey BCMA (rhesus monkey, UniProt F7FFA0 1-53)
# T2 construct: extracellular domain; also called RhBCMA
# T2 sequence (F7FFA0 entry or part of it): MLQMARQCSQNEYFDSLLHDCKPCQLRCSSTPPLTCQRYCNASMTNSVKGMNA
# Experiment: Octet BLI; Fab 200 nM
row,Binder,Kd [nM]
1,B1,5.42
2,B2,4.82
3,B3,5.62
4,B4,2.98
5,B5,3.85
6,B6,5.66
7,B7,6.05
8,B8,3.33
9,B9,4.38
10,B10,9.12
11,B11,2.82
12,B12,5.99
13,B13,5.6
14,B14,3.69
15,B15,3.31
16,B16,5
17,B17,4.54
18,B18,7.38
19,B19,6.41
20,B20,4.57
21,B21,5.64

row,Binder,Kd [nM]
1,B22,4.26
2,B23,4.89
3,B24,4.83
4,B25,4.63
5,B26,7.86
6,B27,3.92
7,B28,6.9
8,B29,3.45
9,B30,4.13
10,B31,4.53
11,B32,3.59
12,B33,3.91
13,B34,7.49
14,B35,5.08
15,B36,5.5
16,B37,4.76
17,B38,6.59
18,B39,5.93
19,B40,4.29
20,B41,6.3
21,B42,4.1

# Target: T1, extracellular domain of human BCMA
# Experiment: Octet BLI; Fab 200 nM
row,Binder,Kd [nM]
1,B1,1.27
2,B2,0.867
3,B3,1.04
4,B4,0.778
5,B5,1.06
6,B6,0.882
7,B7,1.32
8,B8,0.714
9,B9,1.01
10,B10,1.53
11,B11,0.665
12,B12,1.19
13,B13,1.14
14,B14,1.14
15,B15,0.8
16,B16,1.27
17,B17,1.17
18,B18,1.43
19,B19,1.29
20,B20,0.946
21,B21,1.06

row,Binder,Kd [nM]
1,B22,1.19
2,B23,1.05
3,B24,0.873
4,B25,1.23
5,B26,2.1
6,B27,0.816
7,B28,1.21
8,B29,0.83
9,B30,0.843
10,B31,1.12
11,B32,0.92
12,B33,0.766
13,B34,1.43
14,B35,1.13
15,B36,1.48
16,B37,1.06
17,B38,2.2
18,B39,1.04
19,B40,0.996
20,B41,1.52
21,B42,0.936

# From US20240327535A1 (EISAI R AND D MANAGEMENT, published 2024)
